Measurements published in the supplement of paper PMC9233669.
Fewer inactive variants are shown than the library holds.

How the values were obtained:
biotinyl-Leu-oxazolone = assay: self-aminoacylation, catalytic enhancement (BLO) (fold over background); higher = more active; k-Seq, kA / k0A0; sequences stand for … in GGGAAUGGAUCCACAUCUACGAAUUC…UUCACUGCAGACUUGACGAAGCUG
Outline: (§1)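 Catalytic enhancement equals the median kA over the uncatalyzed rate, the latter read from the low-activity peak of a bimodal Gaussian fit. Values of kA came from fitting each sequence's fraction reacted to a pseudo-first-order model, with 1000 bootstraps. Reacted RNA was captured with streptavidin and quantified by triplicate qPCR and Illumina sequencing after 90 minutes at room temperature with 2–1250 μM biotinyl-aminoacyl-oxazolone and 0.43 μM mutagenized RNA pools bearing a 21-nt variable region.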

biotinyl-Met-oxazolone = assay: self-aminoacylation, catalytic enhancement (BMO) (fold over background); higher = more active; k-Seq, kA / k0A0; sequences stand for … in GGGAAUGGAUCCACAUCUACGAAUUC…UUCACUGCAGACUUGACGAAGCUG
Outline: as §1

biotinyl-Trp-oxazolone = assay: self-aminoacylation, catalytic enhancement (BWO) (fold over background); higher = more active; k-Seq, kA / k0A0; sequences stand for … in GGGAAUGGAUCCACAUCUACGAAUUC…UUCACUGCAGACUUGACGAAGCUG
Outline: as §1

biotinyl-Phe-oxazolone = assay: self-aminoacylation, catalytic enhancement (BFO) (fold over background); higher = more active; k-Seq, kA / k0A0; sequences stand for … in GGGAAUGGAUCCACAUCUACGAAUUC…UUCACUGCAGACUUGACGAAGCUG
Outline: as §1

biotinyl-Val-oxazolone = assay: self-aminoacylation, catalytic enhancement (BVO) (fold over background); higher = more active; k-Seq, kA / k0A0; sequences stand for … in GGGAAUGGAUCCACAUCUACGAAUUC…UUCACUGCAGACUUGACGAAGCUG
Outline: as §1

biotinyl-Ile-oxazolone = assay: self-aminoacylation, catalytic enhancement (BIO) (fold over background); higher = more active; k-Seq, kA / k0A0; sequences stand for … in GGGAAUGGAUCCACAUCUACGAAUUC…UUCACUGCAGACUUGACGAAGCUG
Outline: as §1

| Sequence | self-aminoacylation (biotinyl-Leu-oxazolone) | self-aminoacylation (biotinyl-Met-oxazolone) | self-aminoacylation (biotinyl-Trp-oxazolone) | self-aminoacylation (biotinyl-Phe-oxazolone) | self-aminoacylation (biotinyl-Val-oxazolone) | self-aminoacylation (biotinyl-Ile-oxazolone) |
| --- | --- | --- | --- | --- | --- | --- |
| AUUCACCAAGGUGAUCGGGUG [Fam2.2 aminoacylation ribozyme variant] | 4.13 | 3.28 | 4.15 | 17.6 | 2.98 | 2.63 |
| CCACACUUCAAGCAAUCGGGU [Fam1B.1 aminoacylation ribozyme variant] | 1.87 | 1.41 | 1.06 | 0.915 | 1.8 | 1.51 |
| AAGUUUGCUAAUUGUCGCAGG [Fam3.1 aminoacylation ribozyme variant] | 1.45 | 1.43 | 1.34 | 2.72 | 1.3 | 1.19 |
| AUUUCCCUGGUCACCGAGUGA [Fam2.1 aminoacylation ribozyme variant] | 8.24 | 8.77 | 9.27 | 66.2 | 4.43 | 3.79 |
| AUUGCACUGGUCAUCGAGUGA [Fam2.1 aminoacylation ribozyme variant] | 6.88 | 6.01 | 6.67 | 32.7 | 3.93 | 3.68 |
| CUACUUCAAACAAUCGCUCGG [Fam1A.1 aminoacylation ribozyme variant] | 0.768 | 0.763 | 0.747 | 0.822 | 0.954 | 1.02 |
| CCACACUUCAAUCAAUGGGUC [Fam1B.1 aminoacylation ribozyme variant] | 0.564 | 0.651 | 0.467 | 0.724 | 0.724 | 0.801 |
| AUUCACCUAGGUCAUAAGGUG [Fam2.2 aminoacylation ribozyme variant] | 3.48 | 3.33 | 2.59 | 6.42 | 1.69 | 1.98 |
| AUAACCCUGGUCAUUGAGUGA [Fam2.1 aminoacylation ribozyme variant] | 8.57 | 8.67 | 10.2 | 36.7 | 3.82 | 3.89 |
| AUAACCUUGGUCAUCGAGUGA [Fam2.1 aminoacylation ribozyme variant] | 6.06 | 5.95 | 7.25 | 27.1 | 3.3 | 2.94 |
| UUUCACCUAGUUCAUCGGGUG [Fam2.2 aminoacylation ribozyme variant] | 2.99 | 2.6 | 3.92 | 18.6 | 3.09 | 2.44 |
| GCCCACUUCAAGCAAUCGGUC [Fam1B.1 aminoacylation ribozyme variant] | 1.77 | 1.27 | 18.7 | 24.1 | 1.67 | 1.42 |
| UUUACCCUGGUAAUCGAGUGA [Fam2.1 aminoacylation ribozyme variant] | 8.58 | 9.02 | 10.4 | 58.7 | 3.97 | 4.2 |
| AUUACCCUGGUCAUGUAGUGA [Fam2.1 aminoacylation ribozyme variant] | 2 | 1.97 | 2.4 | 4.73 | 1.81 | 1.77 |
| AUUACCCUGGUUAUUGAGUGA [Fam2.1 aminoacylation ribozyme variant] | 15.1 | 14.4 | 17.8 | 102 | 6.4 | 6.24 |
| CAACACGUCAAGCAAUCGGUC [Fam1B.1 aminoacylation ribozyme variant] | 1.37 | 1.44 | 1.47 | 1.33 | 1.22 | 1.11 |
| ACGAUUGCUAAUAGUCGCAAG [Fam3.1 aminoacylation ribozyme variant] | 1.57 | 1.23 | 0.96 | 1.54 | 1.43 | 1.35 |
| CUACUUCAUACAAUCGGUGUG [Fam1A.1 aminoacylation ribozyme variant] | 1.14 | 0.959 | 0.545 | 0.976 | 0.956 | 0.839 |
| AUUUCCCUGGUUAUCGAGUGA [Fam2.1 aminoacylation ribozyme variant] | 8.65 | 9.01 | 10.9 | 58.2 | 4.39 | 4.12 |
| CCACACUUCAAGCAACCCGUC [Fam1B.1 aminoacylation ribozyme variant] | 0.763 | 0.779 | 0.843 | 0.819 | 1.17 | 1.14 |
| CCACACUUUAAGAAAUCGGUC [Fam1B.1 aminoacylation ribozyme variant] | 0.782 | 0.607 | 0.727 | 0.835 | 0.663 | 0.841 |
| AAGGUUGCUAAUAGUCGGAAG [Fam3.1 aminoacylation ribozyme variant] | 1.23 | 1.08 | 3.38 | 4.52 | 0.973 | 1.51 |
| CCACACUGCAAGCAAUCGGCC [Fam1B.1 aminoacylation ribozyme variant] | 1.99 | 2.93 | 3.9 | 20.5 | 5.56 | 3.29 |
| CUUACCCUGGUCAUCGAAUGA [Fam2.1 aminoacylation ribozyme variant] | 0.937 | 0.915 | 0.668 | 1.02 | 0.985 | 1.01 |
| UUACUUCAAACAAUCGGUCCG [Fam1A.1 aminoacylation ribozyme variant] | 0.937 | 0.942 | 1.64 | 1.69 | 0.891 | 0.82 |
